The source of these data is CN110003338A (BEIJING MIANYI FANGZHOU MEDICINE TECH CO LTD, dated 2019).

The target of the assay is T1, 人OX40 (expressed on cells: transfected 293T cells; HEK::OX40 100B5 cells) (human, UniProt P43489 29-277).
T1 construct: whole, on cells; also called hOX40
T1 sequence (looked up): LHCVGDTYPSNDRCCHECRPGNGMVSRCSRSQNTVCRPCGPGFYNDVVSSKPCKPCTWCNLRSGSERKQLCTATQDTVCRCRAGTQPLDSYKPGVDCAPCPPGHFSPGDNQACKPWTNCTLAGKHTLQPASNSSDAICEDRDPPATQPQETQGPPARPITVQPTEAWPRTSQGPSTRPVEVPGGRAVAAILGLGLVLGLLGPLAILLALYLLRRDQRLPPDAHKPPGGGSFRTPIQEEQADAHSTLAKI
The assay is described as follows: Flow cytometry on 293T cells expressing human OX40, antibody 1 µg/mL final, APC anti-mouse IgG Fc.

B1: 抗OX40单克隆抗体6A6 (antibody, V domains shown)
VH: EVQLQQSGPELVKPGASVKISCKASGYSFTGYYMNWVKQSPEKSLEWIGEINPSTGGTTYNQKFKAKATLTVDKSSSTAYMQLKSLTSEDSAVYYCARSGLPYYDVDYWGQGTTLTVSS
VL: DIQMTQSPSSLSASLGERVSLTCRASQEISGYLSWLHQKPDGTIKRLIYAASTLDSGVPKRFSGSRSGSDYSLTISSLESEDFADYYCLQYASYPLTFGAGTNLELK
notes: Mouse hybridoma monoclonal antibody
Turning to B1, the binding result was “binds”.

B2: 抗OX40单克隆抗体4F2 (antibody, V domains shown)
VH: DVQLQESGPGLVKPSQSLSLTCSVTGYSITSGYNWNWIRQFPGNKLEWMGYISYDGSNNYNPSLKNRISITRDTSKNQFFLKLNSVTTEDTATYYCARQGSSGHFYYAMDYWGQGTSVTVSS
VL: DIVMTQAHKFMSTSVGDRVSITCKASQDVSSAVAWYQQKPGQSPKLLIYWASIRHTGVPDRFTGSGSGTDYTLTISSVQAEDLALYYCQQHYSTPWTFGGGTKLEIK
notes: Mouse hybridoma monoclonal antibody (Balb/c x SP2/0); Constant regions are mouse; it was detected with anti-mouse IgG Fc and mIgG1 served as isotype control
Turning to B2, the binding result is on record as “binds”.
